Results reported in the domain aggregation screens of Martell et al. (2025).

Test: soluble fraction after stress (log2 fold change); higher = more stays soluble; pooled small domains, quantitative proteomics
Conditions: stress: pH 4
Summary of the method: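 Values are log2 fold changes, and higher ones mean more of the domain stayed soluble. Each fold change reflects the soluble amount of a domain after acid stress and is taken as a measure of aggregation propensity. The stress was pH 4, applied to pooled custom libraries of small protein domains analysed by high-throughput quantitative proteomics.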

| Sequence | soluble fraction (log2) |
| --- | --- |
| HMTMKNPNGYGSVINLGKGRRRPWAARVTTGLVYDEKKDKLIQRYKYIGYADTRKEAHQILAEYNAGLPI | 0.0906 |
| HMPISQGATVKHNANMRKGASTKYKVTGVLQEGEEVKILSQSNGWYKIQNSDNEKGWTYNTHINASDK | -0.0274 |
| HMDETPESIFAKANELYPKYIKYFYTEQEYYSKVEEYINLYEFQKNSTYILGKDLEEFLEEYITNKQ | -1.51 |
| HMKAKPTLLTPYEERLKGWLETDSRRPKRDRRTGLALFAKLQQEGFTGSYTRVTEYIRRWRDSGG | 0.0729 |
| HMEMNDFETLRDMYLTGKIWNVGDIVEANGVRGKVIRKGTNYLSFVDEDNKVHKAWLYDIEE | -0.429 |
| HMRESLSEAERHPRYLEGEDVVRMFLLMGDLSRVEAEVIALQWNAQEADRVGLPQDAKVFRTRAR | -0.417 |
| HMKRYLFEEVLAFLKHNDGKSFNYKQLGAAMEIDNESDRFALLETLEELKHQGFVIETDIGKYAAKE | -0.322 |
| HMAAADLNMRAKLADLGGMSYGELSIWEKTHGMEFAAWEHEWEKLNSGTQADGLKFPKHLPEGFPT | 0.116 |
| HMKPSTETLYATARINVRAAADTSAEKLGSIEMGEAVVRTGTDGDWSIIEYNGSTGYVKSEYLTANAGDAT | -0.188 |
| HMLKKRKPMSGVGVIVKGMLTGTVTGTDGSYALKARPNDELSFSFLGYKTQEVFVGSKSTIDITLVDEA | -0.0294 |
| HMSQQMSYSDFVKAVSARQIREAQIQGDKIYATDSTGNRLTIIRLDNDQRLVDDMINNDVNIIGLEE | -0.534 |
| HMQPHLSADEEHLLKILGSDTMHIDALVKRSTLETSNALAALAFLEMKGLVKNIGNMHYIRTYR | -0.518 |
| HMIDLGKSRTWHSENGRAIEARVINISEEQQTVEMQRVDGLKFELSWNQLSKADQTLLAEAAKKTALVA | 0.276 |
| HMDIGNKIKELRTEQKMTQSDLAERLGVTKSSISSYENGSRLPSYDILLKIARIFKVSTDILLG | -0.637 |
| HMTKYEGLSLDLIIDGVVITHNLKLAKLDMNWLLDRLKENGWDNPKDIFYAYIDTAGNFRFQPKLKASRTR | -0.906 |
| HMNKIENLSQTILNILRKDHSQAFNYKQIAAKLQLDDPSSRNQIVKKLKDLQGKGTIQEIERGKYILTP | ≥ 0.43 |
| HMKIPPIMFVRAIMVAGRQSMAIMDIEGVGTGIIVRSGYSFSNGEGKVVRIGPDKVTVNWSGKHLDLAPG | -0.121 |
| HMRKLDQRLAGLLLGKGRLVKATHQQLADELGSVREMVSRLLKGFAEHDLVRMSREQIEIVDAAGLRKLAD | -0.611 |
| HMALPHEIKQKWLEEIMTMLRSSDSVTINKVYLHFPENKSHWVDEILTDLSNTHMITRQHDFIRLKN | -0.221 |
| HMAVVEVATTTATEYKVEKGHHFKVGDFVMFKTGAKSYAITAIDTTSPIFDKITVGTTLGEAIPVGGTLM | -1.45 |
| HMGKRPTIQMVAEMAGVSRGTVDRVLNGRSYVSAQVRQRVLAALQETGYISSREHHQQALQS | 0.0645 |
| HMEEQQIQLIQMKMEKDHKYVGKKISELRIKNMLIVLIKRGDEDIIPRAEVKIKEGDILVLSAQSYEG | -0.29 |
| HMEGLESVVPDLRGKSLKSAAIAAGLSGFALSPEGSGIVYKQSPAPGGRYLKGTLIAVWLRT | 0.22 |
| HMGANSAYMAMRDRIQQRLLAELSPGVTRSDTAEVRRVVERIFNETTAELGLPLSRLERNDIFDLVLADIL | -1.72 |
| HMQTRIDISDAVLQWVVRKTQFAALPPKAAAHLTKWVRGEKKPTFNQLEEVSKATGIPLGYFFLQQPPHE | -0.561 |

| Sequence | soluble fraction (log2) |
| --- | --- |
| HMDNFQFIGYSQQQGQIAVAWIKSLDNGRLVRVEVSDSLEGWRVSDISAQGVNLTKGQQWLMLKRL | -1.37 |
| HMLGAGFDSDLTARENIFLNGALLGHSRAVMRGYYDDIVNFAELHDFMDVPVKNFSSGMTSRLAFSIATIG | 0.183 |
| HMESKITTAEAAAILNASPQFVRVAMQRGILNIGIAMQMPNSNKWTYNISPKLLGEYSGKNIEYELERLR | -0.692 |
| HMVIQRQIPPLVTRMLDGLEQFIQLDMPFDLDTRLGNIEAVRANMDRSDVTSAEAYRQVLELYSIELQ | -0.0525 |
| HMYKLTTQRRAILDVIIENHDKHLNPEEIYDIVKEKYPEIGIATVYRTLQLLEKLNIIYRLNFDDGYNRYE | -1.12 |
| HMQIEQVDYGTFMTMIDDKKIDKVEIKDNQILFIGKDDNKKYKTGIVQDPQLAERLHASGAVFSQDI | -0.158 |
| HMDIYKKFIIPATYFGSRLDHVLSELLPELSRSKIQNMIKQNLVMINGNHAAQKQKVVGDEEIIIKDI | -0.089 |
| HMQFSAVVLDMETRRQVAGVAVYINPKGVVKTDMRGRFVIDGAFNSVTLVRQGYESLTLERSEMTDSIWM | -1.07 |
| HMGTDVFIMTGGTRKRGATWSYYFDLGKIDGKRQKKEKGGFKTKKEAETALAKAINEYNNAGA | 0.175 |
| HMSYFIFDGVLNLGKQYELKGEESSHITKSRRLRPGDSFLIQDQEGQRFEAILKSFDRNSLIFTPHKPTA | 0.043 |
| HMEGFKSVYFLTTPSGAEISDRSVGDIISKTPSLVSAQEGTEFEFNLKGYQPSFYMINKRSPDRVFVELIP | -0.575 |
| HMVRKIRARLVLQLRAEGLSGRAIAGSQGMSRKSVTAVLDAADRAGIGWDEIAERSEGEVYALLFPGRG | -1.18 |
| HMVPLSMLTEGQIFRGQVLDITSQGIKIQLNPEQILFARLGEQVELNIGQQMAFQVRENKGDQLIIHPMQN | -1.18 |
| HMRFSYLNIETRKDISSLINKSEITHSSYNNNEYLYKIKSKKTDDFKDLISLIDEKDLISYSIDS | 0.258 |
| HMIMEVDYGTFMKMTEENAIGRVQMDSTEIIFTDKENTQVYSTGIMYDPDLTQRLYDAGAVFA | -1.58 |
| HMNMEDIADKIGRLYDNLPDDLKLMIKYRDIDDMTYDEIARKANLPIGTVRSRLHRARDILLREI | -0.108 |
| HMNIQGIFGRNLKQKRLEKGMTQEQLAEKAGVSTDTVKRYESGKYDGIRLDMAWYMANALDTPLQALLPP | 0.0744 |
| HMVVPELNLAQQDVLRALRQRGRATADHLSVDTHRPVSEVMGILLGLEIAEVLYRVEGGWFVPKTAR | -1.04 |
| HMDHKSSYWSVKEANLFPELLKQFGSQWSLISDKLGTKSTTMVRNYYQRNAAQLGWKSVVEEADFKRNA | 0.0284 |
| HMTNEAFITPSVLEWAIKRAGVSAESIHKKAEQWVSGKARPTFKQAVDIAKTLQIPFGYLWLKEPPKEQ | -0.442 |
| HMQRGRTFSIVLNWKGRLLSTQMFFPQFTRPTKEQVTFEINKVYPGAMVYYYNPIEKDPSQPLV | 0.0658 |
| HMPMTLGENIARLRTQKDWSQGDLADALGISRQSISKWETDTSIPELEKLIKLSELFGVTLDQLVRGE | -0.615 |
| HMKRDRLYGITIYLLNHGRTSAKTLAEYFEVSVRTIQRDMDALSMAKIPIIAYPGSDGGYEIQEGYRL | -0.37 |
| HMNYTYTVPEGIRYLRADKALALAFPDHSRTALQRAFDSGLVTLRGVAIKRDQSVTALDTLEFAMPDI | -0.675 |
| HMDPTLFRLNILEGLGLEKKNLTSEEQEQLRFLYEHFSMKEILMTIDYIKKLNLEKSIVNLYRLMQHP | -0.581 |

| Sequence | soluble fraction (log2) |
| --- | --- |
| HMPRKLDDQLQEQIRYLKSNYPRMSAAGIFRQLQDNGSIKHGDVSESTINRYVNLLSIEMKTTT | 0.149 |
| HMSENPLTSREIEIVQLLANGKTTKSIAEELHLSNGTIRNYVSIVLDKLNVSNRIEAIRKALDKGWL | -0.0724 |
| HMGIVYGVIKENWDQDHPGMVKVEILQGESGKNVSDWIPVMSPYAGKEFGAYALPEIGTQAVVAFE | -0.0368 |
| HMDSKKNLLGKNGLAFTTLRPAGTVLIDGQRHDVISNGDMIPKGATVRVIAIEGASITVEALPD | -0.309 |
| HMRSGFAFSEEEIKHLDNIVSPLLIKGQSIHHISIFHKDEVMMSERTLYSYVNNGLFSARNIDMPRTVRMR | 0.218 |
| HMTPLILTAQEGGERLDAFVASQVEDLTRSAAQRLLEQGAVTSGGKPLKKNAKTTPGMVVEVLLPDPQ | -0.0145 |
| HMGISGSDLEKMIRNILVNNTDVVETIKSGQDKKGKKQKFLQGLIMKEARGQTDPREAASLLAKLLE | 0.202 |
| HMLNSLDATQRLKLNKDGVVVFNFGKYVDQSVIDIFKKEKGYYNWMMSKDFSQQVKNIITKIYQEEIIG | -0.0228 |
| HMKTRQVTVRNGRIEIFDKRFSTERLVFTAANLPVLEREGEVFTAGIPDSRDFINLWARDGSFAGSVPRV | -1.51 |
| HMSAAIGEAVIATDEINVRSGPGLSHEIVSVVSRNESYPILEERGDWVQIQLNGGQKGWVVSWLIKKKS | -0.268 |
| HMQLTDLSALEAIIKEVLAANPKSVEDYKSGKEKAFGSLVGQAMKATKGKANPETVNSLLRKNLN | -0.0162 |
| HMDDATDVPYQEFRTQVTSGQVEIAQFNNNTGKISFQSTSGEKFETSGPLELSSDDERLFLENIEDFKFFT | -1.63 |
| HMIQRLNVNTEVLSTYIRNSNTPIEYLRQKLPNIDKFLKGELEPTFNQVYALSKLINIPTGLLLLKEPIS | 0.359 |
| HMVQQAVNMAKPGKLFTGPSPTSKALRDLDAGAMLYPTGEKQGPFWKVQDELGNEGWVAMGLLQLA | -0.0346 |
| HMGQHSAELKLHPQDLGQVTISMKVEDNQAQLQMVSGHGHVRAALEAALPQLRSQLADSGIQLTQSSIS | -0.223 |
| HMQISDTASIQEIAKEIIKSNPKAVEDYKKGKENALQFLVGQLMTKTKGTVHPGAARTILGDILK | -0.205 |
| HMQYKVMDVTVDGNPVIEFQNLNSKIKWIENNPDAIIQNIKTSSFEADQKRIVGTSRGPFWIVIKPDF | -0.299 |
| HMLIDSEILKKTNKITIFLIYAFFSEYLINKEKKKILIGEYIKLSKDFLTIEEVKYFNHLLDDISK | -0.304 |
| HMGTVKWFNATKGFGFIVPSDGGKDVFVHITAVQKAGLQGLNEGQKVSYEVAMERGKAAATNLR | -0.259 |
| HMTKVKIDRLFSIVQMLVNRKSVTAKELADYFNVSVRTIYRDIEILSANGIPIYATQGKGGGISILEN | -0.663 |
| HMGPLYARVKAIVLARIMGGDWPPGTALPAEMELARALGVSQGTVRKALDALTAEQVVVRRQGSGTYVAE | -0.158 |
| HMDQNDYMLTRIRNGQMRNKVSVSMPASKIKSAIAAVLKDEGYIENFALNDSSGKPSLIVNLKYYAGQPV | -0.0771 |
| HMYTVKELSRLTGLTPRTLRYYDAIGLLSPARNRDNDYRLYGGAEVDRLQEILLYREMGLPLEEIGRILD | -0.491 |
| HMREGLRHLRVRMPGGAGETLAMLYREGEVLSQSSDGAFIEVEIRVAQSVAGRLLQMPGVQLTEEVG | -0.871 |
| HMGMSENIDKVAGGIPYKVEGNKAIINEPLDDATKERLMGKAKEHGYHAAPNQAGGITITLK | 0.0104 |
